These results are taken from publication PMC12316982 (Nature Communications, 2025).

The chains are these.
B1: NCS.1.1 (human IgG1) (antibody, V domains shown)
VH: QVQLQESGPRLVKPSETLSLTCSVSGESISSGGYYWTWIRQHPGKGLEWIGNIFDTGSTDYSPSLKTRLTISIDTSKNQFYLRLNSATAADTAVYYCARVGFSLETDRPYYLGLDVWGQGTTVTVSS
VL: DIVMTQSPLSLPVTPGEPASISCRSSQSLLHSNGYTYLDWYLQKPGQSPQLLISFTSNRASGVPDRFSGSGSGTYFTLKISRVEAEDVGVYYCMQAVQTPWTFGQGTKVEIK
B2: NCS.1 (human IgG1) (antibody, V domains shown)
VH: B1 VH with Q5P, D60H, F102Y, L112F
VL: B1 VL with S54Y, F55L, T56A
B3: NCS.1.3 (human IgG1) (antibody, V domains shown)
VH: B1 VH with N85T
VL: B1 VL with S10T, S54Y, T56A, T99S

Residue numbers refer to the chain shown, from its start.

This experiment deals with unmodified NA of A/Vietnam/1203/2004 (VN04, H5N1) (Influenza A virus A/Vietnam/1203/2004 …, UniProt Q6DPL2, strain). The experiment is described as follows: ELISA. To be noted: both partners purified.
For the molecule B1, the binding result is “binds”.
Take B2: the binding result is on record as “binds”.
The result for B3 reads “binds”.
